Biological target: 125I-labeled fibronectin
Experiment: binding of 125I-labeled fibronectin to whole bacterial cells

Substance	cpm of 125I fibronectin bound to 10^9 CFU
whole cells of S. aureus ALC561 (ALC136 with pALC561, sar fragment nt 1-1349) (cells without a defined receptor)	19300 cpm
whole cells of S. aureus sar mutant ALC136 (isogenic mutant of RN6390 carrying a sar::Tn917LTV1 mutation) (cells without a defined receptor)	2390 cpm
whole cells of S. aureus strain RN6390 (parental strain) (cells without a defined receptor)	3320 cpm
